Patent US20090149339A1 (published 2009)
Ends that are not written are not given here. * marks the point of attachment. Biotin = O=C1N[C@H]2[C@H](CS[C@H]2CCCCC(=O)*)N1

target: T1, GST-41.8 kD PDZ domain fusion protein (hypothetical 41.8 kD protein AA4-85; PDZ domain 1 of 1) (UniProt P08515 1-218 = GST); test: A assay
T1 construct: also called hypoth
T1 sequence (P08515 1-218, tags or fused parts left off): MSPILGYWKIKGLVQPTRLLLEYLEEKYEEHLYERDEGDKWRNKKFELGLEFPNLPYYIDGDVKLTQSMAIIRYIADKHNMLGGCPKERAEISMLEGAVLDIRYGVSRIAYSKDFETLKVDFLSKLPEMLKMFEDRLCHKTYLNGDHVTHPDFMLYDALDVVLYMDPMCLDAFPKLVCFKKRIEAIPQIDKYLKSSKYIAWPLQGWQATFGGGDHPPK

| Binder | binding result |
| --- | --- |
| Biotin-TSGTGHNQTRALRASESGI [CD97 (CD55L) C-terminal PL peptide AA14L, biotinylated] | binds |
| Biotin-SPQPDSTDNDDYDDISAA [CD6 C-terminal PL peptide AA6L, biotinylated] | binds |

target: GST-PTN-4 PDZ domain fusion protein (protein-tyrosine phosphatase meg1 AA774-862; PDZ domain 1 of 1) (UniProt P08515 1-218 = GST); test: A/G assays
Sequence (P08515 1-218, tags or fused parts left off): as above

| Binder | binding result |
| --- | --- |
| Biotin-TSGTGHNQTRALRASESGI [CD97 (CD55L) C-terminal PL peptide AA14L, biotinylated] | no binding |
| Biotin-SPQPDSTDNDDYDDISAA [CD6 C-terminal PL peptide AA6L, biotinylated] | no binding |

target: T2, GST-TAX2 PDZ domain fusion protein (human tax interaction protein 2 AA54-140; PDZ domain 1 of 1) (human, UniProt P08515 1-218 = GST); test: A/G assays
T2 construct: also called TX 2

| Binder | binding result |
| --- | --- |
| Biotin-TSGTGHNQTRALRASESGI [CD97 (CD55L) C-terminal PL peptide AA14L, biotinylated] | no binding |
| Biotin-SPQPDSTDNDDYDDISAA [CD6 C-terminal PL peptide AA6L, biotinylated] | no binding |

target: GST-prIL16 PDZ domain fusion protein (putative interleukin 16 precursor AA170-383; PDZ domains 1-2 of 2) (UniProt P08515 1-218 = GST); test: A/G assays

| Binder | binding result |
| --- | --- |
| Biotin-TSGTGHNQTRALRASESGI [CD97 (CD55L) C-terminal PL peptide AA14L, biotinylated] | no binding |
| Biotin-SPQPDSTDNDDYDDISAA [CD6 C-terminal PL peptide AA6L, biotinylated] | no binding |

target: T3, GST-TAX33 PDZ domain fusion protein (tax interaction protein 33 AA73-162; PDZ domain 1 of 1) (UniProt P08515 1-218 = GST); test: A/G assays
T3 construct: also called TX33
T3 sequence (P08515 1-218, tags or fused parts left off): as above

| Binder | binding result |
| --- | --- |
| Biotin-TSGTGHNQTRALRASESGI [CD97 (CD55L) C-terminal PL peptide AA14L, biotinylated] | no binding |
| Biotin-SPQPDSTDNDDYDDISAA [CD6 C-terminal PL peptide AA6L, biotinylated] | no binding |

target: GST-MINT3 PDZ domain fusion protein (human MINT3 AA11-52; PDZ domain 1 of 1) (human, UniProt P08515 1-218 = GST); test: A/G assays
Sequence (P08515 1-218, tags or fused parts left off): as above

| Binder | binding result |
| --- | --- |
| Biotin-TSGTGHNQTRALRASESGI [CD97 (CD55L) C-terminal PL peptide AA14L, biotinylated] | no binding |
| Biotin-SPQPDSTDNDDYDDISAA [CD6 C-terminal PL peptide AA6L, biotinylated] | no binding |

target: GST-NOS1 PDZ domain fusion protein (human neuronal nitric oxide synthase; PDZ domain 1 of 1) (human, UniProt P08515 1-218 = GST); test: A/G assays
Sequence (P08515 1-218, tags or fused parts left off): as above

| Binder | binding result |
| --- | --- |
| Biotin-TSGTGHNQTRALRASESGI [CD97 (CD55L) C-terminal PL peptide AA14L, biotinylated] | no binding |
| Biotin-SPQPDSTDNDDYDDISAA [CD6 C-terminal PL peptide AA6L, biotinylated] | no binding |

target: T4, GST-TAX40 PDZ domain fusion protein (human tax interaction protein 40 AA35-137; PDZ domain 1 of 1) (human, UniProt P08515 1-218 = GST); test: A/G assays
T4 construct: also called TX 40
T4 sequence (P08515 1-218, tags or fused parts left off): as above

| Binder | binding result |
| --- | --- |
| Biotin-TSGTGHNQTRALRASESGI [CD97 (CD55L) C-terminal PL peptide AA14L, biotinylated] | no binding |
| Biotin-SPQPDSTDNDDYDDISAA [CD6 C-terminal PL peptide AA6L, biotinylated] | no binding |

target: T5, GST-MPP2 PDZ domain fusion protein (maguk p55 subfamily member 2 (DLG2) AA185-273; PDZ domain 1 of 1) (UniProt P08515 1-218 = GST); test: A/G assays
T5 construct: also called MMP2
T5 sequence (P08515 1-218, tags or fused parts left off): as above

| Binder | binding result |
| --- | --- |
| Biotin-TSGTGHNQTRALRASESGI [CD97 (CD55L) C-terminal PL peptide AA14L, biotinylated] | no binding |
| Biotin-SPQPDSTDNDDYDDISAA [CD6 C-terminal PL peptide AA6L, biotinylated] | no binding |

target: T6, GST-KIAA0559 PDZ domain fusion protein (KIAA0559 AA766-870; PDZ1 of 1) (UniProt P08515 1-218 = GST); test: A/G assays
T6 construct: also called K559
T6 sequence (P08515 1-218, tags or fused parts left off): as above

| Binder | binding result |
| --- | --- |
| Biotin-TSGTGHNQTRALRASESGI [CD97 (CD55L) C-terminal PL peptide AA14L, biotinylated] | no binding |
| Biotin-SPQPDSTDNDDYDDISAA [CD6 C-terminal PL peptide AA6L, biotinylated] | no binding |

target: GST-PSD95 PDZ domain fusion protein (human post-synaptic density protein 95 AA387-724; PDZ domains 1-3 of 3) (human, UniProt P08515 1-218 = GST); test: A/G assays
Sequence (P08515 1-218, tags or fused parts left off): as above

| Binder | binding result |
| --- | --- |
| Biotin-TSGTGHNQTRALRASESGI [CD97 (CD55L) C-terminal PL peptide AA14L, biotinylated] | no binding |
| Biotin-SPQPDSTDNDDYDDISAA [CD6 C-terminal PL peptide AA6L, biotinylated] | no binding |

target: T7, GST-TAX43 PDZ domain fusion protein (human tax interaction protein 43 AA15-85; PDZ domain 1 of 1) (human, UniProt P08515 1-218 = GST); test: A/G assays
T7 construct: also called TX 43
T7 sequence (P08515 1-218, tags or fused parts left off): as above

| Binder | binding result |
| --- | --- |
| Biotin-TSGTGHNQTRALRASESGI [CD97 (CD55L) C-terminal PL peptide AA14L, biotinylated] | no binding |
| Biotin-SPQPDSTDNDDYDDISAA [CD6 C-terminal PL peptide AA6L, biotinylated] | no binding |

target: T8, GST-SYN1a PDZ domain fusion protein (alpha1-syntrophin AA96-189; PDZ domain 1 of 1) (UniProt P08515 1-218 = GST); test: A/G assays
T8 construct: also called SYN 1 alpha; SYNTR 1 alpha
T8 sequence (P08515 1-218, tags or fused parts left off): as above

| Binder | binding result |
| --- | --- |
| Biotin-TSGTGHNQTRALRASESGI [CD97 (CD55L) C-terminal PL peptide AA14L, biotinylated] | no binding |
| Biotin-SPQPDSTDNDDYDDISAA [CD6 C-terminal PL peptide AA6L, biotinylated] | no binding |

target: T9, GST-NeDLG PDZ domain fusion protein (presynaptic protein sao102, neuroendocrine-dlg; PDZ domains 1-2 of 3) (UniProt P08515 1-218 = GST); test: A/G assays
T9 construct: also called NeDLG1
T9 sequence (P08515 1-218, tags or fused parts left off): as above

| Binder | binding result |
| --- | --- |
| Biotin-TSGTGHNQTRALRASESGI [CD97 (CD55L) C-terminal PL peptide AA14L, biotinylated] | no binding |
| Biotin-SPQPDSTDNDDYDDISAA [CD6 C-terminal PL peptide AA6L, biotinylated] | no binding |

target: T10, GST-RGS12 PDZ domain fusion protein (human regulator of G-protein signalling 12 AA35-103; PDZ domain 1 of 1) (human, UniProt P08515 1-218 = GST); test: A/G assays
T10 construct: also called RSG12
T10 sequence (P08515 1-218, tags or fused parts left off): as above

| Binder | binding result |
| --- | --- |
| Biotin-TSGTGHNQTRALRASESGI [CD97 (CD55L) C-terminal PL peptide AA14L, biotinylated] | no binding |
| Biotin-SPQPDSTDNDDYDDISAA [CD6 C-terminal PL peptide AA6L, biotinylated] | no binding |

target: T11, GST-KIAA0303 PDZ domain fusion protein (KIAA0303 AA652-742; PDZ domain 1 of 1) (UniProt P08515 1-218 = GST); test: A/G assays
T11 construct: also called K303
T11 sequence (P08515 1-218, tags or fused parts left off): as above

| Binder | binding result |
| --- | --- |
| Biotin-TSGTGHNQTRALRASESGI [CD97 (CD55L) C-terminal PL peptide AA14L, biotinylated] | no binding |
| Biotin-SPQPDSTDNDDYDDISAA [CD6 C-terminal PL peptide AA6L, biotinylated] | no binding |

target: T12, GST-CASK PDZ domain fusion protein (CASK AA495-584; PDZ domain 1 of 1) (mouse, UniProt P08515 1-218 = GST); test: A/G assays
T12 construct: also called mCASK
T12 sequence (P08515 1-218, tags or fused parts left off): as above

| Binder | binding result |
| --- | --- |
| Biotin-TSGTGHNQTRALRASESGI [CD97 (CD55L) C-terminal PL peptide AA14L, biotinylated] | no binding |
| Biotin-SPQPDSTDNDDYDDISAA [CD6 C-terminal PL peptide AA6L, biotinylated] | no binding |

target: GST-MPP1 PDZ domain fusion protein (55 Kd erythrocyte membrane protein AA101-186; PDZ domain 1 of 1) (UniProt P08515 1-218 = GST); test: A/G assays
Sequence (P08515 1-218, tags or fused parts left off): as above

| Binder | binding result |
| --- | --- |
| Biotin-TSGTGHNQTRALRASESGI [CD97 (CD55L) C-terminal PL peptide AA14L, biotinylated] | no binding |
| Biotin-SPQPDSTDNDDYDDISAA [CD6 C-terminal PL peptide AA6L, biotinylated] | no binding |

target: T13, GST-KIAA0316 PDZ domain fusion protein (KIAA0316 AA197-284; PDZ domain 1 of 1) (UniProt P08515 1-218 = GST); test: A/G assays
T13 construct: also called K316
T13 sequence (P08515 1-218, tags or fused parts left off): as above

| Binder | binding result |
| --- | --- |
| Biotin-TSGTGHNQTRALRASESGI [CD97 (CD55L) C-terminal PL peptide AA14L, biotinylated] | no binding |
| Biotin-SPQPDSTDNDDYDDISAA [CD6 C-terminal PL peptide AA6L, biotinylated] | no binding |

target: T14, GST-CBP PDZ domain fusion protein (Cytohesin binding protein HE AA85-175; PDZ domain 1 of 1) (UniProt P08515 1-218 = GST); test: A/G assays
T14 construct: also called Prot
T14 sequence (P08515 1-218, tags or fused parts left off): as above

| Binder | binding result |
| --- | --- |
| Biotin-TSGTGHNQTRALRASESGI [CD97 (CD55L) C-terminal PL peptide AA14L, biotinylated] | no binding |
| Biotin-SPQPDSTDNDDYDDISAA [CD6 C-terminal PL peptide AA6L, biotinylated] | no binding |

target: GST-DVL1 PDZ domain fusion protein (human dishevelled segment polarity protein homolog AA248-340); PDZ domain … (human, UniProt P08515 1-218 = GST); test: A/G assays

| Binder | binding result |
| --- | --- |
| Biotin-TSGTGHNQTRALRASESGI [CD97 (CD55L) C-terminal PL peptide AA14L, biotinylated] | no binding |
| Biotin-SPQPDSTDNDDYDDISAA [CD6 C-terminal PL peptide AA6L, biotinylated] | no binding |

target: GST-TIAM1 PDZ domain fusion protein (T-lymphoma invasion and metastasis inducing protein 1 AA1001-1088); PDZ 1 … (UniProt P08515 1-218 = GST); test: A/G assays
Sequence (P08515 1-218, tags or fused parts left off): as above

| Binder | binding result |
| --- | --- |
| Biotin-TSGTGHNQTRALRASESGI [CD97 (CD55L) C-terminal PL peptide AA14L, biotinylated] | no binding |
| Biotin-SPQPDSTDNDDYDDISAA [CD6 C-terminal PL peptide AA6L, biotinylated] | no binding |

target: GST-LIMK2 PDZ domain fusion protein (human LIM domain kinase 2 AA185-275; PDZ domain 1 of 1) (human, UniProt P08515 1-218 = GST); test: A/G assays
Sequence (P08515 1-218, tags or fused parts left off): as above

| Binder | binding result |
| --- | --- |
| Biotin-TSGTGHNQTRALRASESGI [CD97 (CD55L) C-terminal PL peptide AA14L, biotinylated] | no binding |
| Biotin-SPQPDSTDNDDYDDISAA [CD6 C-terminal PL peptide AA6L, biotinylated] | no binding |

target: GST-AF6 PDZ domain fusion protein (af-6 protein AA985-1077; PDZ domain 1 of 1) (UniProt P08515 1-218 = GST); test: A/G assays

| Binder | binding result |
| --- | --- |
| Biotin-TSGTGHNQTRALRASESGI [CD97 (CD55L) C-terminal PL peptide AA14L, biotinylated] | no binding |
| Biotin-SPQPDSTDNDDYDDISAA [CD6 C-terminal PL peptide AA6L, biotinylated] | no binding |

target: GST-LIM PDZ domain fusion protein (Human LIM protein AA29-112; PDZ domain 1 of 1) (human, UniProt P08515 1-218 = GST); test: A/G assays
Sequence (P08515 1-218, tags or fused parts left off): as above

| Binder | binding result |
| --- | --- |
| Biotin-TSGTGHNQTRALRASESGI [CD97 (CD55L) C-terminal PL peptide AA14L, biotinylated] | no binding |
| Biotin-SPQPDSTDNDDYDDISAA [CD6 C-terminal PL peptide AA6L, biotinylated] | no binding |
